We go through six molecules from publication PMC3384336 (Nucleic Acids Research, 2012).

The labels stand for the following.
B3: RNA polymerase I subunit A49 (natural protein)
chain: MSVKRSVSEIEIESVQDQPSVAVGSFFKGFRAPSDTTFDLYKKKKSEKDEFVLHGENERLEYEGYTDSSSQASNQYVVGLFNPEKKSIQLYKAPVLVSKVVSKSSKNLRGPKIKSKSDTRPSALRNALGEAFGTKKAKKAIADLERNRIDSDKLTDSAIDIVDSVRTASKDLPTRAQLDEITSNDRPTPLANIDATDVEQIYPIESIIPKKELQFIRVSSILKEADKEKKLELFPYQNNSKYVAKKLDSLTQPSQMTKLQLLYYLSLLLGVYENRRVNNKTKLLERLNSPPEILVDGILSRFTVIKPGQFGRSKDRSYFIDPQNEDKILCYILAIIMHLDNFIVEITPLAHELNLKPSKVVSLFRVLGAIVKGATVAQAEAFGIPKSTAASYKIATMKVPFKLPEMTRRGRGPRR
B4: RNA polymerase I subunit A34.5 (natural protein)
chain: MSKLSKDYVSDSDSDDEVISNEFSIPDGFKKCKHLKNFPLNGDNKKKAKQQQVWLIKFPSNVDISKLKSLPVDFESSTTMTIDKHDYKIMDDTDIESSLTQDNLSNMTLLVPSESKESLKIASTAKDNAPLQFDKVFSVSETAKIPAIDYSKVRVPRKDVPKVEGLKLEHFATGYDAEDFHVAEEVKENKKEPKKRSHHDDEEESSEKKKKKKEKREKREKKDKKDKKKKHRD

Common to all, as to test: cross-linking
In assay [1] the target is B3.
Assay [2] has as its target RNA polymerase I subunit A190 (Saccharomyces cerevisiae, UniProt P10964 1-1664).
Assay [3] addresses T1, RNA polymerase I subunit A135 (Saccharomyces cerevisiae, UniProt P22138 1-1203).
T1 sequence: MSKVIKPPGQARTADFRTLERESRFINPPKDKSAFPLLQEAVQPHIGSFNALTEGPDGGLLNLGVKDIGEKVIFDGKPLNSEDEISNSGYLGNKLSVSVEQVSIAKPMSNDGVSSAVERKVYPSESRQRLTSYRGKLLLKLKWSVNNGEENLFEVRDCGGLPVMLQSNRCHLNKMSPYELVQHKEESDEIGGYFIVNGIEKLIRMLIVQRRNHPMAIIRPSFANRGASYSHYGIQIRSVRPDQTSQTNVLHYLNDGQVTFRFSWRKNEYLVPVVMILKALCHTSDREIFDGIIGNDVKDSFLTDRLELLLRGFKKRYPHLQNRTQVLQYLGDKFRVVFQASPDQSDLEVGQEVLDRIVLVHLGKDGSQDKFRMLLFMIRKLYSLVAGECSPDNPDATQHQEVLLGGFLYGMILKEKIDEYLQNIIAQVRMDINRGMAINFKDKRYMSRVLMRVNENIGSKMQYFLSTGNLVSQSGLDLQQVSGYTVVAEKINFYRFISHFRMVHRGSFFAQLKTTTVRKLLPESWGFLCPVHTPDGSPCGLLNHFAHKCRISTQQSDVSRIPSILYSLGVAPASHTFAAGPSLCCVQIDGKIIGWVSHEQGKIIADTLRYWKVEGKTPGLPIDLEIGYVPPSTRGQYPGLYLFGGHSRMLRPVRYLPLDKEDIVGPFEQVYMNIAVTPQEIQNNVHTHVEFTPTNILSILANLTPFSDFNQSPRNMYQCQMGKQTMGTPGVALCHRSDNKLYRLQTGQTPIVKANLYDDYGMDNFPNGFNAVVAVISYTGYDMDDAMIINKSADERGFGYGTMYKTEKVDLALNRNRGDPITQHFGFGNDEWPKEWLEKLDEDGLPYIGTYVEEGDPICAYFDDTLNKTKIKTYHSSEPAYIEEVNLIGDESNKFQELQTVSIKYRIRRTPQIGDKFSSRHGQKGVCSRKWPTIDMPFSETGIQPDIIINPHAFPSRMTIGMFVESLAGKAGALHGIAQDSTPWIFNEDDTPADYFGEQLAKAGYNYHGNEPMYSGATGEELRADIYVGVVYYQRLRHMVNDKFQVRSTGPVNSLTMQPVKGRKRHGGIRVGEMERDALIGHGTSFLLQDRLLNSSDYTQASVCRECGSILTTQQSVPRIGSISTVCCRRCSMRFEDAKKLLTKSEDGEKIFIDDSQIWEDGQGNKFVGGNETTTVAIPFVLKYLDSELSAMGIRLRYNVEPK

Assay [4] deals with T2, RNA polymerase I subunit AC40 (Saccharomyces cerevisiae, UniProt P07703 1-335).
T2 sequence: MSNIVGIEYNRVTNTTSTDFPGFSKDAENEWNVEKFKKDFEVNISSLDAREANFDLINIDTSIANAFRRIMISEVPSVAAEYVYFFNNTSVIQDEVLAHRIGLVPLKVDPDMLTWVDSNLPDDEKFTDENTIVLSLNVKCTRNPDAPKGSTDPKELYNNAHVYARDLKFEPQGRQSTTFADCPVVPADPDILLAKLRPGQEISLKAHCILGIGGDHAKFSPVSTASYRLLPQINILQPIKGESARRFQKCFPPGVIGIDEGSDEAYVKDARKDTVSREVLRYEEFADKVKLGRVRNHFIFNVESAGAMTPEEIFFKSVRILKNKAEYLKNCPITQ

The target of assay [5] is B4.

Sequence of RNA polymerase I subunit A190 (P10964 whole entry): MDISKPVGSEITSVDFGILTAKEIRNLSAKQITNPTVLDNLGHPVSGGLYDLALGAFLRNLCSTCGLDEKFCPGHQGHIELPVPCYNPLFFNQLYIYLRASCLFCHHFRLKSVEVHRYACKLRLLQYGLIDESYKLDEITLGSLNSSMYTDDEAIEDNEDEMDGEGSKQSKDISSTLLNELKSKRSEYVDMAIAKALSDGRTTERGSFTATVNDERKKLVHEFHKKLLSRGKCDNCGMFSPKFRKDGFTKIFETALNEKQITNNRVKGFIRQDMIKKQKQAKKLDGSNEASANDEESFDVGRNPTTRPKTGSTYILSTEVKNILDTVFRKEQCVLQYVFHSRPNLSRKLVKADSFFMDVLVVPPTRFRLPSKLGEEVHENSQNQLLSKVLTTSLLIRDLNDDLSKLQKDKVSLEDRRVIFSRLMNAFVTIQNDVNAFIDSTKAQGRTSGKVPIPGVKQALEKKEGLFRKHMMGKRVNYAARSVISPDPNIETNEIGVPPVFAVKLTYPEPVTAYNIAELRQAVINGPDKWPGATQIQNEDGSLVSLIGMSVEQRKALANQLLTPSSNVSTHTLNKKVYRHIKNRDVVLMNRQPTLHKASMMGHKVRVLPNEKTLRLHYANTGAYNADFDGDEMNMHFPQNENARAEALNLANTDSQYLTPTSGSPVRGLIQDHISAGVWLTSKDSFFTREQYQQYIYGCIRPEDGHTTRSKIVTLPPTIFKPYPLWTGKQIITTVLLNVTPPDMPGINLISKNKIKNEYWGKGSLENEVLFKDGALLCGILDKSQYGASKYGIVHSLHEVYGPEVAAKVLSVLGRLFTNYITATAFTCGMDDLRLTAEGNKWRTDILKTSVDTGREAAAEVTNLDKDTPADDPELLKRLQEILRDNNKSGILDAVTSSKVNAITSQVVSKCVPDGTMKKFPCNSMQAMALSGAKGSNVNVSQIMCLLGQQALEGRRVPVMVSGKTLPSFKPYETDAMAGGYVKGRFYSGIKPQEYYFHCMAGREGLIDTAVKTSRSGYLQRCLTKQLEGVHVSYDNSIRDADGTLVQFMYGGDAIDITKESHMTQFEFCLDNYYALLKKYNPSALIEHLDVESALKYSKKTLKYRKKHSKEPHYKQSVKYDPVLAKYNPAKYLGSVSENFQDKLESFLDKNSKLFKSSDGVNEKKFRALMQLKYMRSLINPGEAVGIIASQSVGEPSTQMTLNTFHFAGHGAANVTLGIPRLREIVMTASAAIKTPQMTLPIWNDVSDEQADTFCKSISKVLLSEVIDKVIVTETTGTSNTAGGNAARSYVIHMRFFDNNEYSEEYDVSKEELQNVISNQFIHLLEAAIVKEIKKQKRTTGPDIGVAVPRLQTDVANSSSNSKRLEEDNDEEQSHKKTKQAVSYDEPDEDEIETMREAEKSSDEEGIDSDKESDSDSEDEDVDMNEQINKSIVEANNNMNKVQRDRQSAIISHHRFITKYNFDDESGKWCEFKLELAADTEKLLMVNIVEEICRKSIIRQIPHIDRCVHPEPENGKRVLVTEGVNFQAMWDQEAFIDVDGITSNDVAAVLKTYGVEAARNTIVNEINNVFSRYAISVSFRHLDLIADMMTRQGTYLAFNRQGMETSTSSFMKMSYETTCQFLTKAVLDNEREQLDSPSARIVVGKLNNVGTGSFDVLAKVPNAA

B1: RNA polymerase I subunit A43 (natural protein)
chain: MSQVKRANENRETARFIKKHKKQVTNPIDEKNGTSNCIVRVPIALYVSLAPMYLENPLQGVMKQHLNPLVMKYNNKVGGVVLGYEGLKILDADPLSKEDTSEKLIKITPDTPFGFTWCHVNLYVWQPQVGDVLEGYIFIQSASHIGLLIHDAFNASIKKNNIPVDWTFVHNDVEEDADVINTDENNGNNNNEDNKDSNGGSNSLGKFSFGNRSLGHWVDSNGEPIDGKLRFTVRNVHTTGRVVSVDGTLISDADEEGNGYNSSRSQAESLPIVSNKKIVFDDEVSIENKESHKELDLPEVKEDNGSEIVYEENTSESNDGESSDSD
Regarding B1, the binding result in assay [1] is reported as “binds”.

B2: RNA polymerase subunit Rpb5 (natural protein)
chain: MDQENERNISRLWRAFRTVKEMVKDRGYFITQEEVELPLEDFKAKYCDSMGRPQRKMMSFQANPTEESISKFPDMGSLWVEFCDEPSVGVKTMKTFVIHIQEKNFQTGIFVYQNNITPSAMKLVPSIPPATIETFNEAALVVNITHHELVPKHIRLSSDEKRELLKRYRLKESQLPRIQRADPVALYLGLKRGEVVKIIRKSETSGRYASYRICM
Consider B2, for which, in assay [1], the binding result is given as “binds”.

Take B3: the binding result in assay [2] and in assay [3] was “binds” throughout.

On to B4, for which the binding result in assay [4], in assay [1] and in assay [3] was “binds” throughout.

B5: RNA polymerase I subunit A12.2 (natural protein)
chain: MSVVGSLIFCLDCGDLLENPNAVLGSNVECSQCKAIYPKSQFSNLKVVTTTADDAFPSSLRAKKSVVKTSLKKNELKDGATIKEKCPQCGNEEMNYHTLQLRSADEGATVFYTCTSCGYKFRTNN
With B5, the binding result in assay [2] and in assay [3] was “binds” throughout.

B6: RNA polymerase I subunit AC19 (natural protein)
chain: MTEDIEQKKTATEVTPQEPKHIQEEEEQDVDMTGDEEQEEEPDREKIKLLTQATSEDGTSASFQIVEEDHTLGNALRYVIMKNPDVEFCGYSIPHPSENLLNIRIQTYGETTAVDALQKGLKDLMDLCDVVESKFTEKIKSM
Take B6: the binding result in assay [5] was “binds”.
